Test results taken from paper PMC8156467, “Disruption of YY1-EZH2 Interaction Using Synthetic Peptides Inhibits Breast Cancer Development” (Cancers, 2021).

System: HA-YY1
Experiment: Co-IP of Flag-EZH2 wt/mutants with HA-YY1
Assay type: binding
Conditions: OPB domain of YY1 deleted
Excerpt: HA-tagged expression vectors of wild-type (wt) and mutant YY1 were constructed by amplifying and subcloning the corresponding fragments of the YY1 coding region into the pcDNA3 vector. To generate EZH2 mutants, different regions of its coding sequence (1–251, 252–384, 385–618, 619–751, 385–465, 465–545, 545–618, 465–492, and 465–519) were amplified and subcloned into pGEX-4T-1 and pSL4-3×Flag plasmids to construct vectors expressing recombinant GST-EZH2 and 3×Flag-EZH2 mutants, respectively. To generate vectors expressing 3×Flag-YPB, -OPB, and -Cont (with a scrambled sequence of […]) peptides, their coding sequences were individually subcloned into a lentiviral vector pSL4 using the CMV promoter to drive the expression of 3×Flag-YPB-2A1-EGFP, 3×Flag-OPB-2A1-EGFP, and 3×Flag-Cont-2A1-EGFP. […]
Immunoprecipitations were performed as described previously. […] In Western blot studies, protein concentrations of samples were determined using the Bradford protein method, and 20 μg of proteins for each sample were separated by SDS-PAGE followed by transfer to polyvinylidene difluoride (PVDF) membranes. […]
Figure 1 Identification of YY1 binding site on EZH2 protein. […] The samples were analyzed by Western blot using EZH2 and YY1 antibodies as indicated. […]

B1: HA-YY1 (ΔOPB): YY1 mutant with the OPB domain deleted (protein)
chain: MASGDTLYIATDGSEMPAEIVELHEIEVETIPVETIETTVVGEEEEEDDDDEDGGGGDHGGGGGHGHAGHHHHHHHHHHHPPMIALQPLVTDDPTQVHHHQEVILVQTREEVVGGDDSDGLRAEDGFEDQILIPVPAPAGGDDDYIEQTLVTVAAAGKSGGGGSSSSGGGRVKKGGGKKSGKKSYLSGGAGAAGGGGADPDEKKDIDHETVVEEQIIGENSPPDYSEYMTGKKLPPGGIPGIDLSDPKQLAEFARMKPRKIKEDDAPRTIACPHKGCTKMFRDNSAMRKHLHTHGPRVHVCAECGKAFVESSKLKRHQLVHTGEKPFQCTFEGCGKRFSLDFNLRTHVRIHTGDRPYVCPFDGCNKKFAQSTNLKSHILTHAKAKNNQ
modifications: left off: HA, end not stated, kept
- binding of HA-YY1 (ΔOPB) to wt EZH2 in co-IP: did not show detectable binding affinity
